Data as given in patent publication US20220119492A1 (MEDIKINE, published 2022).
Bridge positions count the residues as written; N and C are the ends. Ends that are not written are not given here.

T1: human IL-2Rβ (CD122 protein, Fc Tag) (27-239) (human, UniProt P14784 27-239)
T1 construct: range 27-239; Bought protein; also called hu-IL-2Rβ subunit; IL-2Rβ subunit; not shown: Fc tag of the bought protein
T1 sequence (looked up): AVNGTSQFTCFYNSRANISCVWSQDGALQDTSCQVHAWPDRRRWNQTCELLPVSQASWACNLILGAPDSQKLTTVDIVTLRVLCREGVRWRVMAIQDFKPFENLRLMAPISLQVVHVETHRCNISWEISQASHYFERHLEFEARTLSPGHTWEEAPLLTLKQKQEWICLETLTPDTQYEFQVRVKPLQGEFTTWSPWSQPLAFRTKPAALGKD


Target: T1, human IL-2Rβ (CD122 protein, Fc Tag) …
Test: phage ELISA competition
How it was run: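 Values are IC50s derived from absorbance in a competitive binding ELISA, where a phage tracer competes with test ligands for human IL-2Rβ-Fc across a ligand dilution series. After 50 μL of phage tracer was added without washing for 45 min at 4° C, bound phage was detected with TMB for 1 to 15 min at 25° C. The reaction was then stopped and absorbance read at 450 nm.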

Binder | IC50 [µM]
LHAGRWNPCWLAQLGELCDLE [SEQ ID NO 2733] | < 100
WWPCWVAKLGELCDLEGDASRV [SEQ ID NO 2778] | < 100
WKPCWMALLGELCDLE [SEQ ID NO 2727] | < 100
RLVYDCLFAQVGDLCEVIS [SEQ ID NO 2768] | < 100
WYPCEFAQLGELCDLLPFPYPA [SEQ ID NO 2779] | < 100
KGSWQPCWFAKLGELCDLHPTS [SEQ ID NO 2763] | < 100
HQGFYSCRLARLGELCDLDTGW [SEQ ID NO 2758] | < 100
WLPCWRAQLGQLCDLD [SEQ ID NO 2715] | < 100
SYMHDCFMAQVGDLCDRFIS (disulfide 6-15 (inferred)) [SEQ ID NO 2780] | < 100
RWTQAQWYPCWLAQLGELCDLE [SEQ ID NO 2732] | < 100
WRPCWMAHLGDLCDLEMANENP [SEQ ID NO 2753] | < 100
YLERSRWYPCFIAQLGELCDLE [SEQ ID NO 2741] | < 100
WLPCYMAQLGDLCDLE [SEQ ID NO 2721] | < 100
WYPCWLAQLGEVCDLDDGGGVF [SEQ ID NO 2754] | < 100
WLPCWLAPLGDLCDMDMSAVMN [SEQ ID NO 2752] | < 100
WYPCWRAQLGELCDLVDLGSHL [SEQ ID NO 2747] | < 100
WYPCWMARMGELCDLE [SEQ ID NO 2714] | < 100

Binder | IC50 [µM]
ARTWWPCWRAKLGELCDLVVPE [SEQ ID NO 2757] | < 100
MTDRAFWNPCWVARLGELCDLD [SEQ ID NO 2736] | < 100
DMFTHRWYPCSMAKLGELCDLE [SEQ ID NO 2735] | < 100
AWDWYPCSVAALGEICDLDIQD [SEQ ID NO 2760] | < 100
NRWWHPCWMARVGELCDLEPDA [SEQ ID NO 2777] | < 100
WSPCWMASLGDLCDLEETRQTE (disulfide 4-13 (inferred)) [SEQ ID NO 2748] | < 100
IERAWEWRPCWLASVGELCDLE (disulfide 10-19 (inferred)) [SEQ ID NO 2743] | < 100
VDEFYPCSMAGLGELCDLERQN [SEQ ID NO 2759] | < 100
NVTYTQWFPCWLARLGELCDLV (disulfide 10-19 (inferred)) [SEQ ID NO 2737] | < 100
FYPCWAAHLGDLCDLEYQEAGP [SEQ ID NO 2751] | < 100
WTPCWIAQLGELCDLEGRHGTV [SEQ ID NO 2749] | < 100
WYPCWLAHLGELCDLDWKGRND [SEQ ID NO 2746] | < 100
RPPWYPCWMARLGEVCDMDIML [SEQ ID NO 2761] | < 100
WGGRYWCWMAKLGDLCDLEDEW [SEQ ID NO 2766] | < 100
AMARRYLPCWIAKLGELCELD [SEQ ID NO 2739] | < 100
ARGEYRWFPCWMARLGELCDLE [SEQ ID NO 2740] | < 100
LFPCWLAQLGELCDLE [SEQ ID NO 2716] | < 100

Results, then the binder that gave them:

IC50 [µM] | Binder
< 100 | LGSKRQWYPCWVAHLGELCDLE [SEQ ID NO 2730]
< 100 | SQRWYPCWVAHLGELCDLEGVV [SEQ ID NO 2762]
< 100 | FHPCWRALLGELCDLETALGPS [SEQ ID NO 2773]
< 100 | WYPCSIASLGELCDLE [SEQ ID NO 2720]
< 100 | QTWYLPCWMAKLGELCDLGERD [SEQ ID NO 2764]
< 100 | VASERFYPCWIARLGELCDVE [SEQ ID NO 2744]
< 100 | RYPCWRAKLGELCDLD [SEQ ID NO 2728]
< 100 | WWPCWIAQVGELCDLDGPGRPT [SEQ ID NO 2767]
< 100 | LQIRKLWACRIDLVGPFCLL (disulfide 9-18 (inferred)) [SEQ ID NO 2774]
< 100 | WYPCWIAQVGELCDLDEVSHGR [SEQ ID NO 2770]
< 100 | SWRFLWQDCGRAHVGELCDL [SEQ ID NO 2776]
< 100 | LSSKGWYPCWKARLGDLCDLE (disulfide 9-18 (inferred)) [SEQ ID NO 2734]
< 100 | WWPCSIARLGQLCDLD [SEQ ID NO 2724]
< 100 | WHPCWMAQVGEVCDLD [SEQ ID NO 2722]
< 100 | WWPCWLAQLGELCDLEVNGSLI [SEQ ID NO 2755]
< 100 | MYPCWIAHLGELCDLD [SEQ ID NO 2719]
< 100 | ESEGRGWYPCWNALLGELCDLE [SEQ ID NO 2731]
< 100 | RYPCWIAQLGELCDLD [SEQ ID NO 2717]
< 100 | AEYSGRYDCYIAKVGELCDI [SEQ ID NO 2775]
< 100 | FRVSRDWFPCWMAQLGEVCDLE [SEQ ID NO 2742]
< 100 | LPCWIAQLGDLCDLEPEPSPE [SEQ ID NO 2750]
< 100 | TGEWWPCWVAEVGELCDLERGP [SEQ ID NO 2771]
< 100 | EEQSRGFLPCWMALLGELCDLD [SEQ ID NO 2729]
< 100 | WRILWMQQCWRSHVVNQCAL [SEQ ID NO 2769]
< 100 | EPRWYPCWMAQMGELCDMEMSD (disulfide 7-16 (inferred)) [SEQ ID NO 2765]
< 100 | WYPCWLAQLGELCDAE [SEQ ID NO 2726]
< 100 | TEMWYPCWMAYQGELCDLDMTY [SEQ ID NO 2756]
< 100 | ARTQGWYDCLFAQVGELCDL [SEQ ID NO 2772]
< 100 | WYPCWLASLGEVCDLE [SEQ ID NO 2723]
